Biological target: 2′,3′-cyclic nucleotide 3′-phosphodiesterase (CNP), endogenous, rat (rat (endogenous in cultured rat OLs and rat brain)) (UniProt P13233)
Assay: co-IP

Chain of UniProt P13233 (P13233 whole entry): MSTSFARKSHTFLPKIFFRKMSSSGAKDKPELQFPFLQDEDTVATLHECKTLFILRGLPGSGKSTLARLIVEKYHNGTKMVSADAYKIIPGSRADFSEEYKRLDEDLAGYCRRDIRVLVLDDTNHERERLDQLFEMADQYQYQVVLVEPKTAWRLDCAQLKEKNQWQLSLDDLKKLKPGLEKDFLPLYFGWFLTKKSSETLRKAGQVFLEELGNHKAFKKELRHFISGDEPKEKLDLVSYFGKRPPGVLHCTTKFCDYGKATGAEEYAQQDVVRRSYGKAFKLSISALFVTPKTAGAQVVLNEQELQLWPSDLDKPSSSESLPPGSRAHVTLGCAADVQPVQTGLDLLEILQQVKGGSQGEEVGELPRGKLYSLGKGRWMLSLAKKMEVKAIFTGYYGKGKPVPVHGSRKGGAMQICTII

stoichiometry N: 1
Substance: tubulin (α- and β-tubulin), endogenous, rat (from UniProt P68370 1-451; Q3KRE8 1-445) (complex)
